Results: publication PMC7115876 (Nature, 2020)

Molecular target: human β-arrestin 1 (L68C, R169E) (human, UniProt P49407 2-418, L68C | R169E)
Test: cryo-EM structure

human β-arrestin 1 (L68C, R169E), sequence (P49407 2-418 L68C/R169E): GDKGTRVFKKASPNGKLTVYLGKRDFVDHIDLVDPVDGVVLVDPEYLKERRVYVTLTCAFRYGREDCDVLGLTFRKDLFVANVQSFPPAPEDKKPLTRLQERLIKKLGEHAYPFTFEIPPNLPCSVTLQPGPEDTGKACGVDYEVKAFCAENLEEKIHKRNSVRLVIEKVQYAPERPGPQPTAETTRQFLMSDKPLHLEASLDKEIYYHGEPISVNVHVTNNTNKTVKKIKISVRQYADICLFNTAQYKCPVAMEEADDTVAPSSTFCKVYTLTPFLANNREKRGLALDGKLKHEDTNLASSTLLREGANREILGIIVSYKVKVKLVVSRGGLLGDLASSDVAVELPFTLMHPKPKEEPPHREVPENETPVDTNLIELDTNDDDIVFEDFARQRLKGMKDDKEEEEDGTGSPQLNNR

binding result: binds
B1: β1AR6P (turkey β1AR construct β83 ligated by sortase A to the phosphopeptide V2R6P) (receptor)
chain: not shown
modifications: six phosphoresidues in the V2R6P part: GGGDE[pS]A[pT][pT]A[pS][pS][pS]LAKDTSS
